Test results taken from the supplement of paper PMC12042874.
± gives the uncertainty stated by the source.

Assay: amyloid nucleation score (Sup35N fusion, yeast selection) (log enrichment); library NNK3; higher = more nucleation; inactive = no reads after selection
Method in brief: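 Random libraries were run with three technical output replicates. In each, psi-negative yeast expressing Sup35N fused to peptides of 20 random codons were induced 24 hours with 100 μM copper sulfate and grown 7 days at 30°C on medium lacking adenine and uracil, and input and output plasmid inserts were Illumina-sequenced. The nucleation score is the DiMSum log enrichment of output over input reads, centred on the mode score of non-aggregating sequences, and sequences under 100 input reads were excluded.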

Amyloid nucleation score, 1.05 ± 0.23:
LAFYNQHWNFSMRSGMQGFK

Amyloid nucleation score, 1.2 ± 0.14:
KSKNPIIVFTYRM

Amyloid nucleation score, -1.31 ± 1.9:
LFLSDKLPTFSRLNKCMLGV

Amyloid nucleation score, 2.55 ± 0.076:
LADLNTTNIVIGQCCFFYRL

Amyloid nucleation score, -0.706 ± 1.4:
KLYWNHAQYPNTTVSTVKFS

Amyloid nucleation score, 2.5 ± 0.067:
KIQTNCNFTC

Amyloid nucleation score, 1.03 ± 0.099:
KIILEIAMRTSLCRPTSSYL

Amyloid nucleation score, 1.04 ± 0.13:
LIAYRVGHSGSAQYSSTCGW

Amyloid nucleation score, -0.151 ± 0.59:
LCNWRAVDCDD

Amyloid nucleation score, 0.986 ± 0.15:
KRYSIMFSKASQ

Amyloid nucleation score, 0.362 ± 0.71:
LFMKRLFLSWFSMVVICGAP

Amyloid nucleation score, 0.947 ± 0.25:
LGFLNWSRQGGV

Amyloid nucleation score, 1.98 ± 0.088:
KQLLGGPTVSFNVVYSVALK

Amyloid nucleation score, -0.213 ± 1.5:
LDARN

Amyloid nucleation score, 2.53 ± 0.069:
LIAFA

Amyloid nucleation score, -1.4 ± 2.5:
LHPCEYALM

Amyloid nucleation score, inactive:
KHVGIVMH, KIIYKGLYEHLIVMLNIINL, KIMNSKNVLRHFSLGQWLHG, KITLDYRLGHVDRQTTISVK, KKDQTMVES, KKMLLWHI, KKVISSCFYRVCVSSPAGSV, KKVLN, KLNAVYTRSAGWLSHQEM, KLNLG, KLNSGEVFWQDTL, KLQEDKLGPSKNKPSVHLCF, KLSCMSTIVCRYTFLQAKQT, KLSSFSSLQIYTWYMILG, KLSSKY, KLTHY, KLTNLI, KLVYFRVFKSRFRSRVGGMV, KMCDECIVLS, KMDQYCWGFFVSWYMRKKVF, KMSSHFV, KNEAPRTGQTRPRSTGMYRI, KNEVIYHWLRRRVNSRRTFR, KNKPEKRR, KNREVANYNDMYSDPILG, KNTGMGDTVSFRLVSAFEHI, KPKELSAHLNATM, KPQVPSN, KQKWIPYSLCFFTPVR, KRCIYKSNGI, KRFTLFSMIYGRV, KRGNQGGAMEDFLCNADIRV, KRLAKWGTMYLV, KRLSCNFRSRSKSSGWPTLV, KRYYYCHGSSL, KSFELYSKNVMYDSVLGVCL, KSFQGSITILVFSWLINNPR, KSFSR, KSTTACASRTYMCMHTGRNC, KSVQKMAWTVRCELYLHTG, KSYLFWSLI, KTKQIYDGPLGHSYADKCNV, KTLWHEVRGDDSNVSSCWFS, KTQDKITGFLTVLWLRKLVP, KTSINGKADFG, KVCNSF, KVCSVVLLGLFSYMYRGYVM, KVGIF, KVLSYRETVPRLICLIHSRP, KVNAFTCTKSFGLCVSESFT, KWLYTDYRVISSHILKHLSA, KWVFYYDRRVDSLLARMFLC, KWYRWCMYADDIESHLFGAL, KYCGLSRPIAFSPVVKKHLM, KYCGVTNLA, KYFTLDMNRKSISYL, KYIQIDKVFH, LAAIDERPS, LAAQIMNSLCRLELSQALSR, LACLILS, LACRFILNAEVEICLAWKLG, LAGRHVVMWLQLMAHDIENM, LAMSYYLYPGSCDLKRS, LAPGRLCLMGIKRTTSWWSS, LAPHLSTIMCIEHNS, LARRNTLVEGHDD, LASNFVGASIPPRRACGCRA, LATHSICVKGNSRVSELISA, LAVVNYQSFTNVEWVGNRIK, LAWCVLSKPRDRYSGVTSTL, LCGLSDSYCRA, LCHVVSDMVLSIQHYHACLS, LCHYYLRSKLMAFDMLAFPS, LCRGYDRLKRPHSVVSGSIC, LCRNWVR, LCSFPKH, LCSSLIM, LCSVVTSRAMSGSF, LCTESFIISR, LCVSCIDSFLGEMVFGLEVI, LDCLLFKKCFVVRGLNDYSE, LDFCFLGHRWRSFSGSYRKS, LDFWRESVGAKE, LDFYRTFNDSIFKMGPLCLS, LDIFKISDTWMFDGQLTHLL, LDVPWRTFLNGFHSFLT, LDVQATIAFCVVVYASLYKR, LDVVRRMLKTH, LDVYTVTGRDW, LEHCLCGLKYPDE, LEMTSCTNLLHKRELVSWHR, LEPDNYTLGGTKSTTTFAHR, LERYRFKRNMSVIELHNKVM, LESINTLLNYVYYFNLVN, LEVHIFKDPEY, LEWRMNVLMLFRNVMVHIAS, LEYAYSELNSSVSTLSSFE, LEYVCMRH, LFADWQG, LFCFSVN, LFDLWNRVF, LFGEGKFKYWMSVKKFGSGI, LFHDLGFAD, LFHSYLIHRLFPSNHSNFRM, LFIECIRSGDDGCILWETWH, LFKDSIVLIGILYCMFNLHD, LFKKVDTWSYLHGDTMLRGI, LFLMIFNARNCVRYGIEGPS, LFNSRMCMPRFASASNLACL, LFVLELVRIWVTYNWCSVSF, LFYAVSFQRYQANVFVVRGD, LGIAPDHMSCSGVNRKCGYS, LGKPASSTQSMWNSFVYWLP, LGKRVGCNCICAPRSAGDGI, LGRKIRFFGYSGWGCMIREY, LGSCCLLYYYAKTVMNMFSK, LGSDTPLKCVLSTMRMLRTG, LGVSLKGNYAYWFTLIWSDV, LHGCTEITKGNYLPNNAVD, LHGHTWSWSLDWLSYMTAVQ, LHHFSAIPH, LHHMHYSLKGS, LHQCRDKL, LIARALFNSKWQDTSLSL

Amyloid nucleation score, -0.334 ± 0.55:
LGYTQSVTVMRLMSQYKKAG

Amyloid nucleation score, -0.158 ± 0.35:
KLTVMVMQLASLRLAK

Amyloid nucleation score, -0.123 ± 0.33:
LCPHPPFLCLVQQRFTTGSG

Amyloid nucleation score, 0.364 ± 0.35:
KSNFGLVSSPMVFSYCSYTN

Amyloid nucleation score, 2.16 ± 0.056:
LICIQCWFYDSYHTQQLWGL

Amyloid nucleation score, 1.47 ± 0.12:
KNYNNYMVSSNNLLVDIWLV

Amyloid nucleation score, 0.716 ± 0.13:
KLCYNNCVNLLII

Amyloid nucleation score, 1.71 ± 0.076:
LFKLSMQLCNT

Amyloid nucleation score, -0.354 ± 0.88:
KVGFHHDTVLAGSNQRVLFF

Amyloid nucleation score, 0.294 ± 0.2:
KVSYSQTPISGRTDTPVPDR

Amyloid nucleation score, 0.228 ± 0.25:
KYRVGMSSWFNLAHYGNLCG

Amyloid nucleation score, -0.089 ± 0.96:
LGVHWNPFIWVSSDARQNSR

Amyloid nucleation score, 1.78 ± 0.096:
KYYWFMF

Amyloid nucleation score, 1.18 ± 0.096:
LFQKKFILQVYNCLFSYYFN

Amyloid nucleation score, 1.17 ± 0.19:
KVKRFY

Amyloid nucleation score, 1.11 ± 0.1:
KRANSE

Amyloid nucleation score, -0.339 ± 1.1:
LHVLPEQARTPRVTVPVFSP

Amyloid nucleation score, 1.42 ± 0.13:
LFTWKCDLGSRRAKGSGLGS

Amyloid nucleation score, 0.152 ± 0.77:
KLFISPLEMLISRISWTILH

Amyloid nucleation score, 1.31 ± 0.074:
LARWNVIWFFNGNCIFEESV

Amyloid nucleation score, 3.05 ± 0.057:
LDYAFCILNNNCREC

Amyloid nucleation score, 1.87 ± 0.072:
LDRSVIIVSLILS
